Experiments:
[1] = biological target: T1, soluble CD73 dimer (human, UniProt P21589 27-549, limits assumed); assay: SPR, antibody captured on chip, CD73 in flow; biphasic fit, share after 300 s binding phase of the component with ka 1.16E+05 1/Ms
T1 construct: CD73 in the flow (SPR) or in solution (BLI binning); also called soluble human CD73
T1 sequence: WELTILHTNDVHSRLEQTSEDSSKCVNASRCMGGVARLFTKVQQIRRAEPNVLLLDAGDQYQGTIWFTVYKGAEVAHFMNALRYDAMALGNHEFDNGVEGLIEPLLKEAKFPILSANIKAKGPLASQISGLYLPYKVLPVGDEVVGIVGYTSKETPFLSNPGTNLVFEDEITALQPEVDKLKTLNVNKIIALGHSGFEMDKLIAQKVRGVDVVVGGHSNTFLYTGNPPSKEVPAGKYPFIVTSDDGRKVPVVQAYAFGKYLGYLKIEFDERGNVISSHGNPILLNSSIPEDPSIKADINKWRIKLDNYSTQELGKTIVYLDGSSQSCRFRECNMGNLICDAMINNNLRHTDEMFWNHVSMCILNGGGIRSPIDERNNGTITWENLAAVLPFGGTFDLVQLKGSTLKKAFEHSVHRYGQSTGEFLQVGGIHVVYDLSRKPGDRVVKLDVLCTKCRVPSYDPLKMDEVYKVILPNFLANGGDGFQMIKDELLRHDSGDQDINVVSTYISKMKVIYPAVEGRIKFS

[2] = biological target: T1, soluble CD73 dimer; assay: SPR, antibody captured on Protein A chip, CD73 in flow; biphasic fit, component of abundance 91%
[3] = biological target: T1, soluble CD73 dimer; assay: SPR, antibody captured on Protein A chip, CD73 in flow; biphasic fit, component of abundance 45%
[4] = biological target: T1, soluble CD73 dimer; assay: SPR, antibody captured on chip, CD73 in flow; biphasic fit, share after 300 s binding phase of the component with ka 1.19E+06 1/Ms
[5] = biological target: T1, soluble CD73 dimer; assay: SPR, antibody captured on Protein A chip, CD73 in flow; biphasic fit, component of abundance 9%
[6] = biological target: T2, human CD73 on COR-L23 lung carcinoma cells (human) (UniProt P21589)
T2 sequence: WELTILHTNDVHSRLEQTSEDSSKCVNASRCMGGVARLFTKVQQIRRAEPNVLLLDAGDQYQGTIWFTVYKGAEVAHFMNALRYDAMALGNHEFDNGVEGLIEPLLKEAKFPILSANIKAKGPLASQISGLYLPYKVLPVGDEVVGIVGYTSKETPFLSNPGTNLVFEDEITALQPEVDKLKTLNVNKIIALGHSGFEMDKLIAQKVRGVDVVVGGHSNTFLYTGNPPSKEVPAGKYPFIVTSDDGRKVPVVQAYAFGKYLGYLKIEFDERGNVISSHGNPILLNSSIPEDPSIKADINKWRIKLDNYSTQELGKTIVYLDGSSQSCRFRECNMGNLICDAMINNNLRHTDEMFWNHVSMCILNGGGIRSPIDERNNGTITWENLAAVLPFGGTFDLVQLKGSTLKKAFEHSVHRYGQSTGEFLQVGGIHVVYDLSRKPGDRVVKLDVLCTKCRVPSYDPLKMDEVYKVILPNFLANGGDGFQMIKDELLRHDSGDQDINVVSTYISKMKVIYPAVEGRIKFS

[7] = biological target: T1, soluble CD73 dimer; assay: SPR, antibody captured on Protein A chip, CD73 in flow; Langmuir 1:1 fit
[8] = biological target: T1, soluble CD73 dimer; assay: SPR, antibody captured on chip, CD73 in flow; biphasic fit, share by T0 intercept of the component with kd 6.00E-03 1/s
[9] = biological target: T1, soluble CD73 dimer; assay: SPR, antibody captured on chip, CD73 in flow; biphasic fit, share by T0 intercept of the component with kd 7.80E-05 1/s
[10] = biological target: T2, human CD73 on COR-L23 lung carcinoma cells (human); assay: cell-based or functional assay
[11] = biological target: T1, soluble CD73 dimer; assay: SPR, antibody captured on Protein A chip, CD73 in flow; Langmuir ka with major component kd
[12] = biological target: T1, soluble CD73 dimer; assay: SPR, antibody captured on Protein A chip, CD73 in flow; biphasic fit, component of abundance 55%
[13] = biological target: T1, soluble CD73 dimer; assay: SPR, antibody on the solid support, soluble CD73 dimer in solution
[14] = biological target: T1, soluble CD73 dimer; assay: SPR dissociation kinetics
[15] = biological target: T1, soluble CD73 dimer; assay: SPR, antibody captured on Protein A chip, CD73 in flow; biphasic fit, component of abundance 65%
[16] = biological target: T1, soluble CD73 dimer; assay: SPR, antibody captured on chip, CD73 in flow; biphasic fit, share after 300 s binding phase of the component with ka 1.38E+06 1/Ms
[17] = biological target: T1, soluble CD73 dimer; assay: SPR, antibody captured on chip, CD73 in flow; biphasic fit, share after 300 s binding phase of the component with ka 2.81E+05 1/Ms
[18] = biological target: T1, soluble CD73 dimer; assay: SPR, antibody captured on Protein A chip, CD73 in flow; biphasic fit, component of abundance 85%
[19] = biological target: T1, soluble CD73 dimer; assay: SPR, antibody captured on chip, CD73 in flow; biphasic fit, share by T0 intercept of the component with kd 2.70E-05 1/s
[20] = biological target: T1, soluble CD73 dimer; assay: SPR, antibody captured on chip, CD73 in flow; biphasic fit, share by T0 intercept of the component with kd 2.70E-03 1/s
[21] = biological target: T1, soluble CD73 dimer; assay: SPR; KD from Langmuir ka and kd of the principal dissociation component
[22] = biological target: T1, soluble CD73 dimer; assay: SPR, antibody captured on Protein A chip, CD73 in flow; biphasic fit, component of abundance 15%
[23] = biological target: T1, soluble CD73 dimer; assay: SPR, antibody captured on Protein A chip, CD73 in flow; biphasic fit, component of abundance 35%

B1: TB19/TC29 (bispecific antibody, part only; not given: TC29 arm; constant regions, V domains shown, part only)
VH: QEQLQESGPGLVKPSETLSLTCTVSGGSIRNNYYNWIRQPAGKGLEWIGRIYISGTTNSNPSLKSRVTMSIDTSKNQFSLKLSSVTAADTAIYYCAREHYVSGTSLDNWGQGTLVTVSS
VL: EIVMTQSPTTLSLSPGERATLSCRASQSVNTNYFSWYQQKPGLTPRLLIYGTSTRATGIPARFSGSGSGTDFTLTISSLQPEDFGIYYCQQDYNLPYTFGQGTYLEIK
abundance of association component (biphasic fit) [1]: 45%
koff [2]: 7.8e-05 s⁻¹
kon [3]: 116000 M⁻¹ s⁻¹
abundance of association component (biphasic fit) [4]: 55%
koff [5]: 0.006 s⁻¹
% inhibition of CD73 activity at 1 µg/ml antibody (COR-L23 cells, 4 h, LC/MS); cell TB19 x TC29 [6]: 95%
koff [7]: 8.96e-05 s⁻¹
kon [7]: 685000 M⁻¹ s⁻¹
abundance of dissociation component (biphasic fit) [8]: 9%
abundance of dissociation component (biphasic fit) [9]: 91%
EC50 (nM) of inhibition of CD73 activity (adenosine by LC/MS) [10]: 0.264 nM
EC50, fold lower than that of the antibody mixture [10]: 50 fold
Max Inhib. (projected maximal inhibition at saturating antibody) [10]: 95%
inhibition of CD73 enzymatic activity on COR-L23 cells at 1 µg/mL [10]: > 95%
Kd [11]: 0.114 nM
kon [12]: 1.19e+06 M⁻¹ s⁻¹

B2: TB19/C16 (bispecific antibody, part only; not given: C16 arm, part only)
TB19 arm heavy chain: QEQLQESGPGLVKPSETLSLTCTVSGGSIRNNYYNWIRQPAGKGLEWIGRIYISGTTNSNPSLKSRVTMSIDTSKNQFSLKLSSVTAADTAIYYCAREHYVSGTSLDNWGQGTLVTVSS
TB19 arm light chain: EIVMTQSPTTLSLSPGERATLSCRASQSVNTNYFSWYQQKPGLTPRLLIYGTSTRATGIPARFSGSGSGTDFTLTISSLQPEDFGIYYCQQDYNLPYTFGQGTYLEIKRTVAAPSVFIFPPSDEQLKSGTASVVCLLNNFYPREAKVQWKVDNALQSGNSQESVTEQDSKDSTYSLSSTLTLSKADYEKHKVYACEVTHQGLSSPVTKSFNRGEC
% inhibition of CD73 activity at 1 µg/ml antibody (COR-L23 cells, 4 h, LC/MS); cell TB19 x C16 [6]: 85%

B3: TB19/H19 (bispecific antibody, part only; not given: H19 arm; constant regions, V domains shown, part only)
VH: QEQLQESGPGLVKPSETLSLTCTVSGGSIRNNYYNWIRQPAGKGLEWIGRIYISGTTNSNPSLKSRVTMSIDTSKNQFSLKLSSVTAADTAIYYCAREHYVSGTSLDNWGQGTLVTVSS
VL: EIVMTQSPTTLSLSPGERATLSCRASQSVNTNYFSWYQQKPGLTPRLLIYGTSTRATGIPARFSGSGSGTDFTLTISSLQPEDFGIYYCQQDYNLPYTFGQGTYLEIK
fold lower KD than either parental antibody [13]: 15 fold
fold more stable (kd of the principal component) than with either monovalent parental [14]: 26 fold
kon [15]: 281000 M⁻¹ s⁻¹
abundance of association component (biphasic fit) [16]: 35%
% inhibition of CD73 activity at 1 µg/ml antibody (COR-L23 cells, 4 h, LC/MS); cell TB19 x H19 [6]: 97%
abundance of association component (biphasic fit) [17]: 65%
koff [7]: 0.000112 s⁻¹
kon [7]: 449000 M⁻¹ s⁻¹
koff [18]: 2.7e-05 s⁻¹
abundance of dissociation component (biphasic fit) [19]: 85%
abundance of dissociation component (biphasic fit) [20]: 15%
EC50 (nM) of inhibition of CD73 activity (adenosine by LC/MS) [10]: 0.382 nM
Max Inhib. (projected maximal inhibition at saturating antibody) [10]: 98%
inhibition of CD73 enzymatic activity on COR-L23 cells at 1 µg/mL [10]: > 95%
fold increase of apparent affinity (KD) over either monovalent parental antibody [21]: 69 fold
Kd [11]: 0.0602 nM
koff [22]: 0.0027 s⁻¹
kon [23]: 1.38e+06 M⁻¹ s⁻¹

B4: TB19/TA10 (bispecific antibody, part only; not given: TA10 arm, part only)
TB19 arm heavy chain: QEQLQESGPGLVKPSETLSLTCTVSGGSIRNNYYNWIRQPAGKGLEWIGRIYISGTTNSNPSLKSRVTMSIDTSKNQFSLKLSSVTAADTAIYYCAREHYVSGTSLDNWGQGTLVTVSS
TB19 arm light chain: EIVMTQSPTTLSLSPGERATLSCRASQSVNTNYFSWYQQKPGLTPRLLIYGTSTRATGIPARFSGSGSGTDFTLTISSLQPEDFGIYYCQQDYNLPYTFGQGTYLEIKRTVAAPSVFIFPPSDEQLKSGTASVVCLLNNFYPREAKVQWKVDNALQSGNSQESVTEQDSKDSTYSLSSTLTLSKADYEKHKVYACEVTHQGLSSPVTKSFNRGEC
% inhibition of CD73 activity at 1 µg/ml antibody (COR-L23 cells, 4 h, LC/MS); cell TB19 x TA10 [6]: 80%

Reference: US20220403041A1 (Sanofi, published 2022)
